Results published in patent US20030108958A1.

Biological target: AK155 receptor complex (IL-20R1 and IL-10R2), endogenous on human cell lines (human) (UniProt Q9UHF4)
Experiment: cell-based or functional assay

AK155 receptor complex (IL-20R1 and IL-10R2), endogenous on human cell lines (human), sequence (Q9UHF4 30-553 V259I/L382F limits assumed, chain 1 of 2): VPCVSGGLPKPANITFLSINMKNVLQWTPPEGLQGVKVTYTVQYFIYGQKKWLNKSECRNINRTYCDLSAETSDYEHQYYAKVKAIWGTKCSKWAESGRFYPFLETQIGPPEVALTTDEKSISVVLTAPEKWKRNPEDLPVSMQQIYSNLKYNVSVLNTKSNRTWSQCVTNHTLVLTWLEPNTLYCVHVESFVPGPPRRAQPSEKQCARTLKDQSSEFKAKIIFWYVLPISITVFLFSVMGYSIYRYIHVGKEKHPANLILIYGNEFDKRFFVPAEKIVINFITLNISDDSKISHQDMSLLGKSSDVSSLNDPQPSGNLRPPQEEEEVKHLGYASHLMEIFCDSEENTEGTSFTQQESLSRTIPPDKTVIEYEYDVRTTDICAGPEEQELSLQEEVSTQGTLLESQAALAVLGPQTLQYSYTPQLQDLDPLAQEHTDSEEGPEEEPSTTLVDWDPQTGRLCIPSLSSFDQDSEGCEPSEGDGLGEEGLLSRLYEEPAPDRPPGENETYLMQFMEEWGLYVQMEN
AK155 receptor complex (IL-20R1 and IL-10R2), endogenous on human cell lines (human), sequence (chain, as listed by the source limits assumed, chain 2 of 2): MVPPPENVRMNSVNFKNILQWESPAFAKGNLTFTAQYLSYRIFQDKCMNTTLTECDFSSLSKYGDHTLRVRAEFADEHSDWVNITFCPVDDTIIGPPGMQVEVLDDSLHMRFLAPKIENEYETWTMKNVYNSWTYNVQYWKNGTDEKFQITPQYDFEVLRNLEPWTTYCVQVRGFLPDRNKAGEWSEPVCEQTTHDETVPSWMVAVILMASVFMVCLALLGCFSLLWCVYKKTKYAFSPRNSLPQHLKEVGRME

IL-8 in supernatant of Colo-205 cells (ELISA), 24 h, with AK155 (without AK155: 552): 670 pg/mL | IL-8 in supernatant of Colo-205 cells (ELISA), 48 h, with AK155 (without AK155: 623): 989 pg/mL | IL-10 in supernatant of Colo-205 cells (ELISA), 24 h, with AK155 (without AK155: 61): 112 pg/mL | IL-10 in supernatant of Colo-205 cells (ELISA), 48 h, with AK155 (without AK155: 60): 94 pg/mL
Substance: AK155 (from UniProt Q9NPH9 22-171) (ligand)
